What was measured:
human IgG (human) [1] = test: depletion of 10 mg/ml IgG solution, 1 mg particles per 50 µL, single half-hour incubation
human IgG (human) [2] = test: depletion of IgG from 50 µL human serum with 1 mg nanoparticles, 60 min with stirring at room temperature

## protein G' (protein G devoid of the albumin recognition region), covalently bound to silica mesoporous nanoparticles (from UniProt P19909 314-497)
Human IgG (human) [1]
  percent of IgG removed: > 90%
Human IgG (human) [2]
  IgG elimination capacity: > 90%
